Holding throughout (assay): BLI; […]; 10x kinetics buffer, […]; global fit, 1:1 binding model; […]
On the technique in general: BLI is a label-free optical method that tracks binding on a fibre tip over time.

Experiment [1] has as its target SARS-CoV-2 BA.2.12.1 RBD (SARS-CoV-2) (UniProt P0DTC2).
Experiment [2] addresses SARS-CoV-2 BA.2.75.2 RBD (SARS-CoV-2) (UniProt P0DTC2).
Experiment [3] deals with SARS-CoV-2 BA.2.86 RBD (SARS-CoV-2) (UniProt P0DTC2).
Experiment [4] addresses SARS-CoV-2 BA.5 RBD (SARS-CoV-2) (UniProt P0DTC2).
For experiment [5], the target named is SARS-CoV-2 BQ.1.1 RBD (SARS-CoV-2) (UniProt P0DTC2).
Experiment [6] concerns the target SARS-CoV-2 Delta RBD (SARS-CoV-2) (UniProt P0DTC2).
In experiment [7] the target is SARS-CoV-2 Wuhan-Hu-1 RBD (SARS-CoV-2) (UniProt P0DTC2).
Experiment [8] deals with SARS-CoV-2 XBB.1.5 RBD (SARS-CoV-2) (UniProt P0DTC2).

The values that follow come from article doi:10.1101/2024.08.08.606885.

The Kd is a measure of binding affinity in units of concentration. A high value points to lower affinity. By koff is commonly meant the first-order rate constant of dissociation. A low value points to a long-lived complex. The term kon denotes the second-order rate constant of association. Lower therefore signals slow association.

For the substance “TRI2-2 homotrimeric miniprotein inhibitor (designed binder)”, the dissociation constant (Kd) in experiment [1] is 0.851 nM; in experiment [2], 0.542 nM; in experiment [3] it was 0.388 nM; in experiment [4], 0.0306 nM; in experiment [5] it was 0.21 nM; in experiment [6], 0.00114 nM. Also, the Kd in experiment [7] amounted to 0.00121 nM; in experiment [8], 0.658 nM. Also, the koff in experiment [1] stood at 0.000117 s⁻¹; in experiment [2] it was 8.93e-05 s⁻¹; in experiment [3] it was 0.000131 s⁻¹; in experiment [4], 9.92e-06 s⁻¹; in experiment [5] it was 3.36e-05 s⁻¹; in experiment [6] it was 2.95e-07 s⁻¹. For the same substance, the values for the koff in experiment [7] and in experiment [8] were 3.46e-07 s⁻¹ and 0.000105 s⁻¹, respectively. In addition, the association rate constant (kon) in experiment [1] came to 137000 M⁻¹ s⁻¹; in experiment [2], 165000 M⁻¹ s⁻¹; in experiment [3] it was 339000 M⁻¹ s⁻¹; in experiment [4], 325000 M⁻¹ s⁻¹; in experiment [5], 160000 M⁻¹ s⁻¹; in experiment [6] it was 259000 M⁻¹ s⁻¹. The kon in experiment [7] was found to be 286000 M⁻¹ s⁻¹; in experiment [8] it was 160000 M⁻¹ s⁻¹.
